First the molecules themselves.
B1: Protein S100-G, residues 1 to 79; numbered along this chain, P02633 (parent)
chain: MSAKKSPEELKGIFEKYAAKEGDPNQLSKEELKLLLQTEFPSLLKGPSTLDELFEELDKNGDGEVSFEEFQVLVKKISQ

± gives the uncertainty stated by the source.

This series covers variants of B1. The series is described as follows: abundance fitness (aPCA) (normalised: wild type 0, dead -1); higher = more abundant; growth selection in yeast, the domain comes from the species named. Particulars: Bos taurus.
MSAKKSPEELKGIFEKYAAKEGDPNQPSKEELKLLLQTEFPSLLKGPSTLDELFEELDKNGDGEVSFEEFQVLVKKISQ [L27P]: the abundance fitness was -0.846 ± 0.082. Then MSAKKSPEELKGIFEKYAAKEGDPNQTSKEELKLLLQTEFPSLLKGPSTLDELFEELDKNGDGEVSFEEFQVLVKKISQ [L27T], with -0.335 ± 0.078; and MSAKKSPEELKGIFEKYAAKEGDPNQVSKEELKLLLQTEFPSLLKGPSTLDELFEELDKNGDGEVSFEEFQVLVKKISQ [L27V], with -0.02 ± 0.073; and MSAKKSPEELKGIFEKYAAKEGDPNQKSKEELKLLLQTEFPSLLKGPSTLDELFEELDKNGDGEVSFEEFQVLVKKISQ [L27K], with -0.844 ± 0.088. As for MSAKKSPEELKGIFEKYAAKEGDPNQISKEELKLLLQTEFPSLLKGPSTLDELFEELDKNGDGEVSFEEFQVLVKKISQ [L27I], the figure is 0.105 ± 0.1. For the variant MSAKKSPEELKGIFEKYAAKEGDPNQDSKEELKLLLQTEFPSLLKGPSTLDELFEELDKNGDGEVSFEEFQVLVKKISQ [L27D], the abundance fitness is -0.855 ± 0.1.

As to MSAKKSPEELKGIFEKYAAKEGDPNQRSKEELKLLLQTEFPSLLKGPSTLDELFEELDKNGDGEVSFEEFQVLVKKISQ [L27R], the abundance fitness is -0.673 ± 0.066. As for MSAKKSPEELKGIFEKYAAKEGDPNQWSKEELKLLLQTEFPSLLKGPSTLDELFEELDKNGDGEVSFEEFQVLVKKISQ [L27W], the figure is -0.936 ± 0.088; as for MSAKKSPEELKGIFEKYAAKEGDPNQGSKEELKLLLQTEFPSLLKGPSTLDELFEELDKNGDGEVSFEEFQVLVKKISQ [L27G], -0.786 ± 0.076. Then MSAKKSPEELKGIFEKYAAKEGDPNQQSKEELKLLLQTEFPSLLKGPSTLDELFEELDKNGDGEVSFEEFQVLVKKISQ [L27Q], with -0.839 ± 0.08; and MSAKKSPEELKGIFEKYAAKEGDPNQSSKEELKLLLQTEFPSLLKGPSTLDELFEELDKNGDGEVSFEEFQVLVKKISQ [L27S], with -0.611 ± 0.068. As for MSAKKSPEELKGIFEKYAAKEGDPNQLSKHELKLLLQTEFPSLLKGPSTLDELFEELDKNGDGEVSFEEFQVLVKKISQ [E30H], the figure is -0.026 ± 0.077; as for MSAKKSPEELKGIFEKYAAKEGDPNQLSKFELKLLLQTEFPSLLKGPSTLDELFEELDKNGDGEVSFEEFQVLVKKISQ [E30F], -0.006 ± 0.077. Regarding MSAKKSPEELKGIFEKYAAKEGDPNQLSKDELKLLLQTEFPSLLKGPSTLDELFEELDKNGDGEVSFEEFQVLVKKISQ [E30D], the abundance fitness is 0.073 ± 0.084. As for MSAKKSPEELKGIFEKYAAKEGDPNQLSKCELKLLLQTEFPSLLKGPSTLDELFEELDKNGDGEVSFEEFQVLVKKISQ [E30C], the figure is -0.018 ± 0.086. Then MSAKKSPEELKGIFEKYAAKEGDPNQLSKAELKLLLQTEFPSLLKGPSTLDELFEELDKNGDGEVSFEEFQVLVKKISQ [E30A], with -0.016 ± 0.074; and MSAKKSPEELKGIFEKYAAKEGDPNQLSKIELKLLLQTEFPSLLKGPSTLDELFEELDKNGDGEVSFEEFQVLVKKISQ [E30I], with -0.032 ± 0.085; and MSAKKSPEELKGIFEKYAAKEGDPNQLSKGELKLLLQTEFPSLLKGPSTLDELFEELDKNGDGEVSFEEFQVLVKKISQ [E30G], with -0.057 ± 0.082. As for MSAKKSPEELKGIFEKYAAKEGDPNQLSHEELKLLLQTEFPSLLKGPSTLDELFEELDKNGDGEVSFEEFQVLVKKISQ [K29H], the figure is 0.06 ± 0.086; as for MSAKKSPEELKGIFEKYAAKEGDPNQLSIEELKLLLQTEFPSLLKGPSTLDELFEELDKNGDGEVSFEEFQVLVKKISQ [K29I], 0.056 ± 0.091; as for MSAKKSPEELKGIFEKYAAKEGDPNQLSGEELKLLLQTEFPSLLKGPSTLDELFEELDKNGDGEVSFEEFQVLVKKISQ [K29G], -0.078 ± 0.073. Regarding MSAKKSPEELKGIFEKYAAKEGDPNQLSQEELKLLLQTEFPSLLKGPSTLDELFEELDKNGDGEVSFEEFQVLVKKISQ [K29Q], the abundance fitness was -0.099 ± 0.085.

On to MSAKKSPEELKGIFEKYAAKEGDPNQLSNEELKLLLQTEFPSLLKGPSTLDELFEELDKNGDGEVSFEEFQVLVKKISQ [K29N], for which the abundance fitness stood at 0.07 ± 0.091. Then MSAKKSPEELKGIFEKYAAKEGDPNQLSEEELKLLLQTEFPSLLKGPSTLDELFEELDKNGDGEVSFEEFQVLVKKISQ [K29E], with -0.14 ± 0.083; and MSAKKSPEELKGIFEKYAAKEGDPNQLSMEELKLLLQTEFPSLLKGPSTLDELFEELDKNGDGEVSFEEFQVLVKKISQ [K29M], with -0.057 ± 0.077. Then MSAKKSPEELKGIFEKYAAKEGDPNQLSVEELKLLLQTEFPSLLKGPSTLDELFEELDKNGDGEVSFEEFQVLVKKISQ [K29V], with 0.038 ± 0.07; and MSAKKSPEELKGIFEKYAAKEGDPNQLSYEELKLLLQTEFPSLLKGPSTLDELFEELDKNGDGEVSFEEFQVLVKKISQ [K29Y], with 0.12 ± 0.086. As for MSAKKSPEELKGIFEKYAAKEGDPNQLSAEELKLLLQTEFPSLLKGPSTLDELFEELDKNGDGEVSFEEFQVLVKKISQ [K29A], the figure is 0.025 ± 0.071; as for MSAKKSPEELKGIFEKYAAKEGDPNQLSFEELKLLLQTEFPSLLKGPSTLDELFEELDKNGDGEVSFEEFQVLVKKISQ [K29F], 0.017 ± 0.087. As to MSAKKSPEELKGIFEKYAAKEGDPNQLSTEELKLLLQTEFPSLLKGPSTLDELFEELDKNGDGEVSFEEFQVLVKKISQ [K29T], the abundance fitness came out at 0.007 ± 0.079. Then MSAKKSPEELKGIFEKYAAKEGDPNQLSDEELKLLLQTEFPSLLKGPSTLDELFEELDKNGDGEVSFEEFQVLVKKISQ [K29D], with -0.007 ± 0.096; and MSAKKSPEELKGIFEKYAAKEGDPNQLSSEELKLLLQTEFPSLLKGPSTLDELFEELDKNGDGEVSFEEFQVLVKKISQ [K29S], with -0.006 ± 0.068; and MSAKKSPEELKGIFEKYAAKEGDPNQLSCEELKLLLQTEFPSLLKGPSTLDELFEELDKNGDGEVSFEEFQVLVKKISQ [K29C], with 0.002 ± 0.086.

Take MSAKKSPEELKGIFEKYAAKEGDPNQLSLEELKLLLQTEFPSLLKGPSTLDELFEELDKNGDGEVSFEEFQVLVKKISQ [K29L]: the abundance fitness is -0.008 ± 0.064. Consider MSAKKSPEELKGIFEKYAAKEGDPNQLSREELKLLLQTEFPSLLKGPSTLDELFEELDKNGDGEVSFEEFQVLVKKISQ [K29R], for which the abundance fitness turned out to be 0.027 ± 0.065.

For the origin of these results see the Human Domainome abundance scans (Beltran et al. 2025).
